Test results: patent US20230192835A1 (PROMETHEUS BIOSCIENCES, published 2023)

B1: Clone 17L IgG1 (modified) (antibody)
heavy: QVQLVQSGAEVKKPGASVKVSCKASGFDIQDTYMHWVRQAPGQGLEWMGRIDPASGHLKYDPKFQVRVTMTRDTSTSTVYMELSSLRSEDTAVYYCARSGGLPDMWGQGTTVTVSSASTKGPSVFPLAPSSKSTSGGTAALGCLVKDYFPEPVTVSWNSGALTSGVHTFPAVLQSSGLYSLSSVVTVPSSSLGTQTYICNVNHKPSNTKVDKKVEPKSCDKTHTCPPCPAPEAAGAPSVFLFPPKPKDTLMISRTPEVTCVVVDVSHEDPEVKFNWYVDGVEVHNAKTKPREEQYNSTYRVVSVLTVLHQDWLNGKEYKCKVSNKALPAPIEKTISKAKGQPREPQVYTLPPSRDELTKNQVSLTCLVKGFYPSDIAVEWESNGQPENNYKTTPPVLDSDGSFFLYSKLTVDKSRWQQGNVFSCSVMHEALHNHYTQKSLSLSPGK
light: EIVLTQSPGTLSLSPGERATLSCRASSSVSYMYWYQQKPGQAPRLLIYATSNLASGIPDRFSGSGSGTDFTLTISRLEPEDFAVYYCQQWQGNPRTFGGGTKLEIKRTVAAPSVFIFPPSDEQLKSGTASVVCLLNNFYPREAKVQWKVDNALQSGNSQESVTEQDSKDSTYSLSSTLTLSKADYEKHKVYACEVTHQGLSSPVTKSFNRGEC
notes: also called 17L G1
B2: Clone 47 IgG1 (modified) (antibody)
heavy: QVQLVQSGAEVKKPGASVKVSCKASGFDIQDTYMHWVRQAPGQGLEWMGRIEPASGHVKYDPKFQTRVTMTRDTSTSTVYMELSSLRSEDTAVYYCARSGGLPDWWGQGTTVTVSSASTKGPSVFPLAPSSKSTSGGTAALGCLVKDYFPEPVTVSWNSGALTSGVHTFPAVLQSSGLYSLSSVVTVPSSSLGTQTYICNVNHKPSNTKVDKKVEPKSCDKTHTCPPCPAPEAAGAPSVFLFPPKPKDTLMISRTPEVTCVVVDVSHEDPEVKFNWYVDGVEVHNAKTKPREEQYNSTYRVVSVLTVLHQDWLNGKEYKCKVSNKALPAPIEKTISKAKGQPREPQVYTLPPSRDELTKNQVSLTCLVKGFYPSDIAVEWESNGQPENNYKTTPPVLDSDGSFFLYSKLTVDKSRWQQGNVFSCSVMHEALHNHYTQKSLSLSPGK
light: EIVLTQSPGTLSLSPGERATLSCRASSSVSYMYWYQQKPGQAPRLLIYATSNLASGIPDRFSGSGSGTDFTLTISRLEPEDFAVYYCQQWEGNPRTFGGGTKLEIKRTVAAPSVFIFPPSDEQLKSGTASVVCLLNNFYPREAKVQWKVDNALQSGNSQESVTEQDSKDSTYSLSSTLTLSKADYEKHKVYACEVTHQGLSSPVTKSFNRGEC
notes: also called 47 G1; variant 47
B3: Clone 17L IgG2 (antibody)
heavy: QVQLVQSGAEVKKPGASVKVSCKASGFDIQDTYMHWVRQAPGQGLEWMGRIDPASGHLKYDPKFQVRVTMTRDTSTSTVYMELSSLRSEDTAVYYCARSGGLPDMWGQGTTVTVSSASTKGPSVFPLAPCSRSTSESTAALGCLVKDYFPEPVTVSWNSGALTSGVHTFPAVLQSSGLYSLSSVVTVPSSNFGTQTYTCNVDHKPSNTKVDKTVERKCCVECPPCPAPPVAGPSVFLFPPKPKDTLMISRTPEVTCVVVDVSHEDPEVQFNWYVDGVEVHNAKTKPREEQFNSTFRVVSVLTVVHQDWLNGKEYKCKVSNKGLPAPIEKTISKTKGQPREPQVYTLPPSREEMTKNQVSLTCLVKGFYPSDIAVEWESNGQPENNYKTTPPMLDSDGSFFLYSKLTVDKSRWQQGNVFSCSVMHEALHNHYTQKSLSLSPGK
light: EIVLTQSPGTLSLSPGERATLSCRASSSVSYMYWYQQKPGQAPRLLIYATSNLASGIPDRFSGSGSGTDFTLTISRLEPEDFAVYYCQQWQGNPRTFGGGTKLEIKRTVAAPSVFIFPPSDEQLKSGTASVVCLLNNFYPREAKVQWKVDNALQSGNSQESVTEQDSKDSTYSLSSTLTLSKADYEKHKVYACEVTHQGLSSPVTKSFNRGEC
notes: also called 17L G2
B4: Clone 47 IgG2 (antibody)
heavy: QVQLVQSGAEVKKPGASVKVSCKASGFDIQDTYMHWVRQAPGQGLEWMGRIEPASGHVKYDPKFQTRVTMTRDTSTSTVYMELSSLRSEDTAVYYCARSGGLPDWWGQGTTVTVSSASTKGPSVFPLAPCSRSTSESTAALGCLVKDYFPEPVTVSWNSGALTSGVHTFPAVLQSSGLYSLSSVVTVPSSNFGTQTYTCNVDHKPSNTKVDKTVERKCCVECPPCPAPPVAGPSVFLFPPKPKDTLMISRTPEVTCVVVDVSHEDPEVQFNWYVDGVEVHNAKTKPREEQFNSTFRVVSVLTVVHQDWLNGKEYKCKVSNKGLPAPIEKTISKTKGQPREPQVYTLPPSREEMTKNQVSLTCLVKGFYPSDIAVEWESNGQPENNYKTTPPMLDSDGSFFLYSKLTVDKSRWQQGNVFSCSVMHEALHNHYTQKSLSLSPGK
light: EIVLTQSPGTLSLSPGERATLSCRASSSVSYMYWYQQKPGQAPRLLIYATSNLASGIPDRFSGSGSGTDFTLTISRLEPEDFAVYYCQQWEGNPRTFGGGTKLEIKRTVAAPSVFIFPPSDEQLKSGTASVVCLLNNFYPREAKVQWKVDNALQSGNSQESVTEQDSKDSTYSLSSTLTLSKADYEKHKVYACEVTHQGLSSPVTKSFNRGEC
notes: also called 47 G2
B5: Clone 2 Fab (Fab, V domains shown)
VH: QVQLVQSGAEVKKPGASVKVSCKASGFDIQDTYMHWVRQAPGQGLEWMGRIEPASGHIKYSPKFQGRVTMTRDTSTSTVYMELSSLRSEDTAVYYCARSGGLPDWWGQGTTVTVSS
VL: EIVLTQSPGTLSLSPGERATLSCRASSSVSYMYWYQQKPGQAPRLLIYATSNLASGIPDRFSGSGSGTDFTLTISRLEPEDFAVYYCQQWEGNPRTFGGGTKLEIK
notes: Fab
B6: Clone 17L Fab (Fab, V domains shown)
VH: QVQLVQSGAEVKKPGASVKVSCKASGFDIQDTYMHWVRQAPGQGLEWMGRIDPASGHLKYDPKFQVRVTMTRDTSTSTVYMELSSLRSEDTAVYYCARSGGLPDMWGQGTTVTVSS
VL: EIVLTQSPGTLSLSPGERATLSCRASSSVSYMYWYQQKPGQAPRLLIYATSNLASGIPDRFSGSGSGTDFTLTISRLEPEDFAVYYCQQWQGNPRTFGGGTKLEIK
notes: Fab
B7: Clone 47 Fab (Fab, V domains shown)
VH: QVQLVQSGAEVKKPGASVKVSCKASGFDIQDTYMHWVRQAPGQGLEWMGRIEPASGHVKYDPKFQTRVTMTRDTSTSTVYMELSSLRSEDTAVYYCARSGGLPDWWGQGTTVTVSS
VL: EIVLTQSPGTLSLSPGERATLSCRASSSVSYMYWYQQKPGQAPRLLIYATSNLASGIPDRFSGSGSGTDFTLTISRLEPEDFAVYYCQQWEGNPRTFGGGTKLEIK
notes: Fab
B8: Clone 46 Fab (Fab, V domains shown)
VH: QVQLVQSGAEVKKPGASVKVSCKASGFDIQDTYMHWVRQAPGQGLEWMGRIEPASGHVKYSPKFQVRVTMTRDTSTSTVYMELSSLRSEDTAVYYCARSGGLPDWWGQGTTVTVSS
VL: EIVLTQSPGTLSLSPGERATLSCRASSSVSYMYWYQQKPGQAPRLLIYATSNLASGIPDRFSGSGSGTDFTLTISRLEPEDFAVYYCQQWEGNPRTFGGGTKLEIK
notes: Fab
B9: Clone 52 Fab (Fab, V domains shown)
VH: QVQLVQSGAEVKKPGASVKVSCKASGFDIQDTYMHWVRQAPGQGLEWMGRIEPASGHIKYSPKFQGRVTMTRDTSTSTVYMELSSLRSEDTAVYYCARSGGLPDWWGQGTTVTVSS
VL: EIVLTQSPGTLSLSPGERATLSCGASSSVSYMYWYQQKPGQAPRLLIYATSNLASGIPDRFSGSGSGTDFTLTISRLEPEDFAVYYCQQWEGNPRTFGGGTKLEIK
notes: Fab

Molecular target: T1, membrane-associated human TL1A on transfected HEK293 cells (human, UniProt O95150 1-251)
T1 construct: whole, on cells
T1 sequence (looked up): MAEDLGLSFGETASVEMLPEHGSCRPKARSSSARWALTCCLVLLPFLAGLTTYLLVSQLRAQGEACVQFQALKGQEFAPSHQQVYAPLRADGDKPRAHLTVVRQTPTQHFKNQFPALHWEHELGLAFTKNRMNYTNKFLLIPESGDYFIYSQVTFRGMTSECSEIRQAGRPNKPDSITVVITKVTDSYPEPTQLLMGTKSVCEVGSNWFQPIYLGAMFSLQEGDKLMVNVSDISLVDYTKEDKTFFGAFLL
Experiment: flow cytometry, HEK293 cells expressing human TL1A, IgG

Binding result, binds:
B1
B2
B3
B4

Molecular target: T1, membrane-associated human TL1A on …
Experiment: flow cytometry, HEK293 cells expressing human TL1A, Fab
Procedure: All the Fab variants were tested for binding to membrane-associated human TL1A. For these studies a HEK293 cell line that had been transfected with human TL1A was used. The 293 cells expressing membrane bound human TL1A were maintained in DMEM containing L-glutamine, glucose, sodium pyruvate, and phenol red (ThermoFisher cat #11995-065) plus 10% fetal bovine serum, 1× penicillin-streptomycin (Fisher cat #15140122) and 2 μg/ml puromycin (Gibco cat #A11138-03) in a 37° C. incubator with 5% CO₂. Three days prior to the assay, a T-75 flask was seeded with 3×10⁶ cells so that the flask was 90-95% confluent on the day of the assay. The media was aspirated and the cell monolayer was gently washed with 5 ml PBS. Adherent cells were removed by repeatedly pipetting 10 ml ice cold 1% BSA/PBS against the monolayer. The cells were counted and 5×10⁵ were aliquoted for each sample to be analyzed. The cells were collected by centrifuging at 300×g at 4° C. for 5 minutes and the wash was discarded. The cells were resuspended in 100 μl Fab or IgG diluted in 1% BSA/PBS and placed on ice for 30 min. Next, the cells were washed with 1 ml 1% BSA/PBS and collected by centrifuging at 300×g at 4° C. for 5 min. The wash was discarded and 100 μl secondary goat F(ab′)2 anti-human kappa FITC (Southern Biotech cat #2062-02) or goat F(ab′)2 anti-human IgG PE (Southern Biotech cat #2043-09) conjugate, diluted 1:200 in BSA/PBS was added. Cells were placed on ice for 30 min. Finally, the cells were washed with 1 ml BSA/PBS, collected by centrifuging at 300×g at 4° C. for 5 min. The wash was removed and the cells were resuspended in 500 μl 1% BSA/PBS. One drop of Sytox AADvanced ReadyFlow Reagent (ThermoFisher cat #R37173) was added per sample and the samples were analyzed on the Attune NxT Flow Cytometer (ThermoFisher).

Binding result, binds:
B5
B6
B7
B8
B9
